Earlier results in publication PMC7154116.

Target: NTSR3/sortilin (UniProt Q99523)
UniProt Q99523, sequence (Q99523 78-755): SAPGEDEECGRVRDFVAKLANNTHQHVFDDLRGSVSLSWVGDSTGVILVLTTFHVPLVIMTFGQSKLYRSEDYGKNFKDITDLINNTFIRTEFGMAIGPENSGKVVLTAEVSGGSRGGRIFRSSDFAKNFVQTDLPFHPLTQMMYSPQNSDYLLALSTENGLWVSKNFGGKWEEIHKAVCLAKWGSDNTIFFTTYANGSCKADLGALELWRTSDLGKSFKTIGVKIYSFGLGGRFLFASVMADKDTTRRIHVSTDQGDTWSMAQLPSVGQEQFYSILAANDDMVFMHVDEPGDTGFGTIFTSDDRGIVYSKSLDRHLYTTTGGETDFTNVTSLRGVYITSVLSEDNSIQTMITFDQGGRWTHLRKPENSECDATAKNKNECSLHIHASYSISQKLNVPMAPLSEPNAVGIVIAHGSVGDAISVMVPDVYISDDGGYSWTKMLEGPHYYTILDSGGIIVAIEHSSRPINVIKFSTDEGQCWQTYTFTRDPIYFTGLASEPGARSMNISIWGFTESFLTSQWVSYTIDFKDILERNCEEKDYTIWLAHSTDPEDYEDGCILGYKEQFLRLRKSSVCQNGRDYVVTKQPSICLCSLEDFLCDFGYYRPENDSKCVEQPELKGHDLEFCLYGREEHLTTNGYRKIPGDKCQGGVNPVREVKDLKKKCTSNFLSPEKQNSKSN

Kd: 8 nM
Substance: Spadin propeptide fragment (from UniProt Q99523)
